Target: T1, RecA (B. subtilis) (UniProt P16971)
T1 sequence: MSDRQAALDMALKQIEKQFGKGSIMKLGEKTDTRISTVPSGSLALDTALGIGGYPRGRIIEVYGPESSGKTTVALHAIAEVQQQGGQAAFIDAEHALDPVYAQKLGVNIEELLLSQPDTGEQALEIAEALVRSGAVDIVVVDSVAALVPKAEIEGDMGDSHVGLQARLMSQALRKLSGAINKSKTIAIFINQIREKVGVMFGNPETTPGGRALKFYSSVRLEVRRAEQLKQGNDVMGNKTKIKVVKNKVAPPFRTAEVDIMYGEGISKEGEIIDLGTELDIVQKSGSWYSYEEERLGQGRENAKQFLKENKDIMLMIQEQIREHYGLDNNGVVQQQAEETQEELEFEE

B1: RarA K51A (enzyme)
chain: MKPLAYRMRPTKIEDIIGQQHLVAEDKIIGRMVQAKHLSSMILYGPPGIGATSIATAIAGSTSIAFRKLNAVINNKKDMEIVAQEAKMSGQVILILDEVHRLDKGKQDFLLPYLENGMIILIGATTANPYHAINPAIRSRTQIFELEPLTPELIKQALERALHDEHRGLGTYSVSIDDQAMEHFAHGCGGDVRSALNALELAVLSTKESADGEIHITLETAEECLQKKSFSHDKDGDAHYDVLSAFQKSIRGSDANAALHYLARLIEAGDLESIARRLLVIAYEDIGLASPQAGPRVLNAIQTAERVGFPEARIPLANAVIELCLSPKSNSAILAIDEALADIRAGKIGDVPKHLKDAHYKGAQELGRGIDYKYPHNYDNGWVEQQYLPDPLKNKQYYKPKQTGKFESALKQVYDKLMKRK
  maximal rate of ssDNA-dependent ATP hydrolysis of RecA (650 nM) in the presence of RarA K51A (100 nM), coupled spectrophotometric ATPase assay, 5 mM ATP, 30 min at 37°C: 8.8 min⁻¹
